Results on 3 molecules are retold here after PMC6454061.

For test [1], the target named is β1,4-galactosyltransferase B4GalT-I (UniProt P15291). As to the kind of experiment: FRET in cells (heteromer assembly). To be noted: n = 3, 15,000 cells each; parent: est. 100; read off a plot.
Test [2] deals with ST6Gal-I cysteine mutant C24S (UniProt P15907). As to the kind of experiment: FRET in cells (homomer assembly). The conditions noted are these: n = 3, 15,000 cells each; parent: est. 100; read off a plot.
For test [3], the target named is T1, ST6Gal-I cysteine mutant C406A, P15907.
T1 chain: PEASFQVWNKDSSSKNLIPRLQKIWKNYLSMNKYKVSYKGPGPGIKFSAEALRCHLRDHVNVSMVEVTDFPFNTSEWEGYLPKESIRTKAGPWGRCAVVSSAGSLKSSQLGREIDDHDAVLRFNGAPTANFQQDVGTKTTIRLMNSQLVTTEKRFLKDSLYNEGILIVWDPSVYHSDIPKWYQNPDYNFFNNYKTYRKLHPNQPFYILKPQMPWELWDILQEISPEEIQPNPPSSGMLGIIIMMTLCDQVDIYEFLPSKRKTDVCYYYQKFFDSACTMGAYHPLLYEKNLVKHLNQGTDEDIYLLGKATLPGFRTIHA
As to the kind of experiment: FRET in cells (homomer assembly). The conditions noted are these: chain shown with the change; n = 3, 15,000 cells each; parent: est. 100; read off a plot.

The target in test [4] is T2, β1,4-galactosyltransferase B4GalT-I, P15291.
T2 chain: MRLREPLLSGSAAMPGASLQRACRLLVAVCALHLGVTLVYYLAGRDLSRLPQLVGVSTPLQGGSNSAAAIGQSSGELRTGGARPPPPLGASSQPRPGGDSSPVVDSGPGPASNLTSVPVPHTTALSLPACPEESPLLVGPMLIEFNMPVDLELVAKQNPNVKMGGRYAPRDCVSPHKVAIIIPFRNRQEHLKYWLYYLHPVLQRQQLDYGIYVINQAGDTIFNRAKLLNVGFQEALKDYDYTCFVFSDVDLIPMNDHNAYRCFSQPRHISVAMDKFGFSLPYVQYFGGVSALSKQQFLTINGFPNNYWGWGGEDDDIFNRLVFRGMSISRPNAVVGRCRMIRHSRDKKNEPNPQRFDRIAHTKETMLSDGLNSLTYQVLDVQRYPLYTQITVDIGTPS
As to the kind of experiment: FRET in cells (heteromer assembly). The conditions noted are these: chain shown with the change; n = 3, 15,000 cells each; parent: est. 100; read off a plot.

Test [5] deals with T3, ST6Gal-I cysteine mutant C353A, P15907.
T3 chain: T1 chain with C265A, A318C
As to the kind of experiment: FRET in cells (homomer assembly). The conditions noted are these: chain shown with the change; n = 3, 15,000 cells each; parent: est. 100; read off a plot.

Positions count from the first letter of the chain named. Names and notes keep the numbering of the source.

Consider “α-2,6-sialyltransferase ST6Gal-I, wild type (from UniProt P15907) C24S”, for which the results for the percent of parent (% of WT control) in test [1] and in test [2] were 97 and 70, respectively.

B1: α-2,6-sialyltransferase ST6Gal-I, wild type, P15907 C406A (protein)
chain: T1 chain
On to B1, for which the values for the percent of parent (% of WT control) in test [3] and in test [4] were 60 and 84, respectively.

B2: α-2,6-sialyltransferase ST6Gal-I, wild type, P15907 C353A (protein)
chain: T1 chain with C265A, A318C
For B2, the percent of parent (% of WT control) in test [5] amounted to 83.
